Reference: the supplement of paper PMC9170038

Test system: K4 kissing-loop RNA reporter
Test: apparent KD of K4 kissing-loop reporter; higher = weaker reporter binding
Conditions: Eterna round: R107
Procedure: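 RNA-MaP round R107: designed RNA switches with theophylline, tryptophan, arginine or FMN aptamers are transcribed on-chip within common flanks. They are titrated with a labelled K4 kissing-loop RNA reporter in RNA-MaP buffer (100 mM Tris pH 7.5, 80 mM KCl, 4 mM MgCl2), without ligand or with the indicated ligand. Median apparent KD per design.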

[1] = input ligand: theophylline 20 uM
[2] = input ligand: tryptophan 2.4 mM
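Note: bound reporter read as fluorescence of individual clusters on recovered sequencing chips by microscopy, with normalized cluster intensities fitted with a binding model.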

Row | Sequence | apparent KD of K4 kissing-loop reporter (input ligand: FMN 200 uM) | apparent KD of K4 kissing-loop reporter (input ligand: arginine 13.2 mM) | apparent KD of K4 kissing-loop reporter (input ligand: none) | apparent KD of K4 kissing-loop reporter [1] | apparent KD of K4 kissing-loop reporter [2]
1 | UGGAGUUGACGAAAAGUCAACUCCUGAGAAGGAGCGGACGAAAGUCCAGGUAGGUCGCUCACUGCCAGUGAUGUUGGUAAAUAAA [#OpenEnded 1 - Direct theophylline transfer] | 89.5 nM | 175 nM | 113 nM | 144 nM | 82.8 nM
2 | GUAUCGCUAGGAGGAUAUUUCAAAUAACAAAUAAAUGGUUAUACGGAGUGAUGUUCCGAUUUACGGAAAGAAGGCCUAGUGAUAC [FMN B 4] | 112 nM | 203 nM | 210 nM | 218 nM | 203 nM
3 | GCGCAUGUUAAAGGAUAUAGCAGGUGAUACAAGAAAGUGAGUGAUGUUUAUGUAGAUGAUGAUAUGUUAGAAGGUUAACAAAAGC [abcdefghijklmn] | 717 nM | 624 nM | 674 nM | 691 nM | 434 nM
4 | GGUAUCUAUACAGAUACCAGUCGUAUAGGUCGAUUACAGGUUAGUGAUGUUAACCUGUACGACCCUUGGCAGCUGUAUAAUAAUA [Theo B Ex t2] | 62 nM | 60.3 nM | 59.9 nM | 51.7 nM | 61.9 nM
5 | AAUGUACAGGGAAGGAGCGUCGUCCAGUGAUGUUGGAGUUAAAUACCAGUGAUGUUGGUUAGGCAGGUAGGUCGCCCUAAAGUAU [#08 K4 Arginine B Exclusion] | 96.1 nM | 71.5 nM | 86.9 nM | 80 nM | 75.2 nM
6 | CCUUCCACAGAAGGAUAUCGGAGUGAUGUUCCCAAGCAGACCUCAAAGUGGGUAGCCAGUCAGUUCCGAGAAGGUCUGCAGCGAG [theeternabot_exclusion_KL_FMN_B_26] | 250 nM | 280 nM | 271 nM | 370 nM | 189 nM
7 | UUGUUUGGUUGAGAGGUUGGGCGAGAUGAUACCAGUAUAGUAGAGUACCCUUGGCAGCAUAGGAGAGAUAUAGUGAUGUUGUAUG [SSTheophA.U] | 390 nM | 302 nM | 477 nM | 482 nM | 381 nM
8 | UGUCAUUGGUCGGCCGCCACUGGACCGGGUAUAAUCCCAGUGAUGUUGGUAAAAUACGGCCGCCACAGGACCGGGACCGAUGACU [TrypBS 15 #DoubleAptamer #SwitchBubble #K4Middle] | 234 nM | 208 nM | 240 nM | 215 nM | 134 nM
9 | AGAUAGGGCUGAAGGAGCGUCGGAGAAGAAAAGAAGAAAUCCAGUGAUGUUGGAUAAAUCCGACAGGUAGGUCGCAGUUUUAUGA [hbob_SS_Arginine_B_2t136] | 109 nM | 116 nM | 127 nM | 140 nM | 119 nM
10 | GUGCAAAGCACCGGCACGAGCAGCCUAAAGGAGGAUAUGACGAAAGUCAGAAGGCCUAGUGAUGUUAGGUCUUGCUUGAGUCGAA [Omei KL FMN A Exc B v2] | 156 nM | 214 nM | 301 nM | 323 nM | 320 nM
11 | GCCAGAGCGCGAAGGAGCGCCGUGACAGGUUGCUGCCGUGGGCAGUGAUGUUGCUCAGUCUGGCAGGUAGGUCGCGUGCUCUGGC | 196 nM | 173 nM | 205 nM | 228 nM | 219 nM
12 | UCCAGCAGUACUGAUACCAGACUGCAUGUAGUGAUGUUGCAUAAGGGCAUAGAUGUCUCAGUCCCUUGGCAGCAGUACUGUUGCA [Theo B SS t1] | 317 nM | 239 nM | 284 nM | 191 nM | 257 nM
13 | CGCCAUAACACGGCCGCCACUCAUCAAGCUCAGUGAUGUUGAGCAGCAGCUGCAAUCGCGAUUACGAGGACCGGGUGCUGUCUGU [theeternabot_sameState_KL_Trp_B_50] | 286 nM | 329 nM | 314 nM | 357 nM | 231 nM
14 | AAAGGUUGAAGUGAUACCAGACUAGCAGUGAUGUUGCGCCAAAGUGAGUGAUGUUCACCAGUCCCUUGGCAGCACAUGCCUAAAG [Same State Theophylline B GF 13] | 985 nM | 890 nM | 1210 nM | 1310 nM | 811 nM
15 | AGUGAUGUUGAGUUAUCUUAGUGAAGUGAUCGAGGACCGGUACGGCCGCCACUCGAGUGAUGAGUGAGUGAUGUUUGUUUAGUGA [zzymullin] | 546 nM | 431 nM | 549 nM | 593 nM | 311 nM
16 | GAUAAUAGAAUAGAUACCAGUCAAGACCUAGUGAUGUUAGGGAGAUAAGUAGAAUGAAUUGGCCCUUGGCAGCUAUAAUAGUAGG [Default title] | 92.4 nM | 106 nM | 80.5 nM | 129 nM | 73.4 nM
17 | AAUAUAGUGAUGUUAUAUAAGAAGGAGUUACGAGGACCGGUACGGCCGCCACUCGAAACGAGUGAUGAUUUGGGAGAUUGGGUUG [SSTryptA.N] | 484 nM | 347 nM | 489 nM | 433 nM | 370 nM
18 | AUGAGGAACAGUGAUCCUAUUCCAUGGGAAGGAGCGUAGGAUACUACAGGUAGGUCGCCCAGUGAUGUUGGGCGCGUGUUCUUGG [Soririza] | 120 nM | 112 nM | 113 nM | 140 nM | 117 nM
